Test results reported in patent US7132278B2, “PAS kinase” (Board of Regents, The University of Texas System, priority 2001, dated 2006).

Substrate: Nc1ncnc2c1ncn2[C@@H]1O[C@H](COP(=O)(O)OP(=O)(O)OP(=O)(O)O)[C@@H](O)[C@H]1O
Experiment: PASK kinase activity (phosphorylation of AMARA peptide), ATP kinetics
Format: biochemical, human
Conditions: other: HTS kinase assay, AMARA peptide substrate, Tris-HCl pH 7.5, 10 mM MgCl2, room temperature
Protocol: Biochemical properties of the Pask enzyme. A recombinant baculovirus was engineered to overexpress human PASK enzyme in cultured insect cells. The enzyme was expressed as a fusion with a His6 tag at its amino terminus such that the recombinant polypeptide could be purified by Ni-affinity chromatography. Routine enzyme preparations were harvested from 0.8 liter of cultured Sf-9 cells. Cells were lysed by dounce homogenization in 50 mM Tris-HCl, pH 8.0, 100 mM NaCl, 0.04% β-mercaptoethanol (“lysis buffer”) and spun at 100,000×G for one hour to remove insoluble debris. Soluble material (˜50 ml) was then applied to a 3 ml bed volume of Ni-affinity resin. Following application and 50× column volume wash, bound material was eluted with storage buffer (50 mM HEPES, pH 7.4, 100 mM NaCl, 1 mM DTT, 1 mM EDTA) supplemented with 250 mM imidazole. Eluted material was sequentially subjected to Mono-Q, anion-exchange chromatography, and eluted with increasing NaCl concentration. Fractions were evaluated by SDS-PAGE to identify PASK enriched fractions, pooled and dialyzed against storage buffer supplemented with 10% glycerol. Typical enzyme preparations yield 0.5 mg of intact PASK enzyme judged to be greater than 95% pure by visual inspection of Coomassie-stained SDS-PAGE gels.

B1: human PASK (PAS-kinase), wild type, SEQ ID NO:2 (Homo sapiens) (protein)
chain: MEDGGLTAFEEDQRCLSQSLPLPVSAEGPAAQTTAEPSRSFSSAHRHLSRRNGLSRLCQSRTALSEDRWSSYCLSSLAAQNICTSKLHCPAAPEHTDPSEPRGSVSCCSLLRGLSSGWSSPLLPAPVCNPNKAIFTVDAKTTEILVANDKACGLLGYSSQDLIGQKLTQFFLRSDSDVVEALSEEHMEADGHAAVVFGTVVDIISRSGEKIPVSVWMKRMRQERRLCCVVVLEPVERVSTWVAFQSDGTVTSCDSLFAHLHGYVSGEDVAGQHITDLIPSVQLPPSGQHIPKNLKIQRSVGRARDGTTFPLSLKLKSQPSSEEATTGEAAPVSGYRASVWVFCTISGLITLLPDGTIHGINHSFALTLFGYGKTELLGKNITFLIPGFYSYMDLAYNSSLQLPDLASCLDVGNESGCGERTLDPWQGQDPAEGGQDPRINVVLAGGHVVPRDEIRKLMESQDIFTGTQTELIAGGQLLSCLSPQPAPGVDNVPEGSLPVHGEQALPKDQQITALGREEPVAIESPGQDLLGESRSEPVDVKPFASCEDSEAPVPAEDGGSDAGMCGLCQKAQLERMGVSGPSGSDLWAGAAVAKPQAKGQLAGGSLLMHCPCYGSEWGLWWRSQDLAPSPSGMAGLSFGTPTLDEPWLGVENDREELQTCLIKEQLSQLSLAGALDVPHAELVPTECQAVTAPVSSCDLGGRDLCGGCTGSSSACYALATDLPGGLEAVEAQEVDVNSFSWNLKELFFSDQTDQTSSNCSCATSELRETPSSLAVGSDPDVGSLQEQGSCVLDDRELLLLTGTCVDLGQGRRFRESCVGHDPTEPLEVCLVSSEHYAASDRESPGHVPSTLDAGPEDTCPSAEEPRLNVQVTSTPVIVMRGAAGLQREIQEGAYSGSCHHRDGLRLSIQFEVRRVELQGPTPLFCCWLVKDLLHSQRDSAARTRLFLASLPGSTHSTAAELTGPSLVEVLRARPWFEEPPKAVELEGLAACEGEYSQKYSTMSPLGSGAFGFVWTAVDKEKNKEVVVKFIKKEKVLEDCWIEDPKLGKVTLEIAILSRVEHANIIKVLDIFENQGFFQLVMEKHGSGLDLFAFIDRHPRLDEPLASYIFRQLVSAVGYLRLKDIIHRDIKDENIVIAEDFTIKLIDFGSAAYLERGKLFYTFCGTIEYCAPEVLMGNPYRGPELEMWSLGVTLYTLVFEENPFCELEETVEAAIHPPYLVSKELMSLVSGLLQPVPERRTTLEKLVTDPWVTQPVNLADYTWEEVCRVNKPESGVLSAASLEMGNRSLSDVAQAQELCGGPVPGEAPNGQGCLHPGDPRLLTS
Km: 2500 µM
